From paper PMC6930692, “Superior Treg-Expanding Properties of a Novel Dual-Acting Cytokine Fusion Protein” (Frontiers in Pharmacology, 2019)

T1: mouse TNFR1-Fc (mouse, UniProt P25118 30-212)
T1 construct: mouse TNF receptor 1 (TNFR1) as an Fc fusion protein; neither the source of the protein nor the kind of Fc is told; Also used here as the TNFR1 of the L929 functional rows; also called mTNFR1-Fc
T1 sequence (looked up): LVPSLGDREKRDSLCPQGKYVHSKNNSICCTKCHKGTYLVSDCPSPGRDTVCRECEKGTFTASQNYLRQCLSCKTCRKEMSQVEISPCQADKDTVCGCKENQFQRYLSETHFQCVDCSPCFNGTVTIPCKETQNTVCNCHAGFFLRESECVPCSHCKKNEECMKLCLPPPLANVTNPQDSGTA

T2: mouse TNFR2-Fc (mouse, UniProt P25119 23-258)
T2 construct: mouse TNF receptor 2 (TNFR2) as an Fc fusion protein; neither the source of the protein nor the kind of Fc is told; Also used here as the TNFR2 of the functional rows (BV-2 cells, T cells, sTNFR2); also called mTNFR2-Fc
T2 sequence (looked up): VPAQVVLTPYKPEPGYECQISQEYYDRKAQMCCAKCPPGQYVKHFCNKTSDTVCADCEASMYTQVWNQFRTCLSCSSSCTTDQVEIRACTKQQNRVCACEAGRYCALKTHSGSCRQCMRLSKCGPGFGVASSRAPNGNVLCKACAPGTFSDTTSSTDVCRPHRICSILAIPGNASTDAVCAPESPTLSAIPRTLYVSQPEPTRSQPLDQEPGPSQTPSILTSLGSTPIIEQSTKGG


Tests used:
[1] = target: T1, mouse TNFR1-Fc; assay: ELISA; mouse TNFR1-Fc or TNFR2-Fc coated at 1 µg/ml in PBS; fusion proteins in 2% skim milk powder in PBS, 1 h at RT; detected with anti-TNF (HP8001) or anti-his-tag antibody and HRP-conjugated secondary antibody; details: both partners purified
[2] = target: T2, mouse TNFR2-Fc; assay: as above; details: both partners purified
[3] = target: the molecule itself; assay: SDS-PAGE under non-reducing conditions; 2 µg purified fusion protein, 8% SDS-PAGE with and without 2-ME, Coomassie staining; disulfide-linked dimer
[4] = target: T2, mouse TNFR2-Fc; assay: quartz crystal microbalance; TNFR2-Fc chemically immobilised on a carboxyl sensor chip at high density (270 Hz); PBST (PBS, 0.1% Tween 20) pH 7.4, 37°C; analytes 2 to 32 nM; Kd = koff/kon assuming 1:1 binding; details: both partners purified

Row | binding result [1] | EC50 [2] [pM] | Kd [4] [pM] | kon [4] [M⁻¹ s⁻¹] | Binder | stoichiometry N [3]
1 | binds |  |  |  | soluble recombinant mouse TNF (ligand, UniProt P06804 80-235, looked up, soluble recombinant mouse tumor necrosis factor (TNF), wild type; Positive control; also called sTNF; wild-type soluble TNF) LRSSSQNSSDKPVAHVVANHQVEEQLEWLSQRANALLANGMDLKDNQLVVPADGLYLVYSQVLFKGQGCPDYVLLTHTVSRFAISYQEKVNLLSAVKSPCPKDTPEGAELKPWYEPIYLGGVFQLEKGDQLSAEVNLPKYLDFAESGQVYFGVIAL | 
2 |  | 31 | 120 | 1.2e+06 | EHD2-sc-mTNFR2 (ligand) PTVKILQSSCDGGGHFPPTIQLLCLVSGYTPGTINITWLEDGQVMDVDLSTASTTQEGELASTQSELTLSQKHWLSDRTYTCQVTYQGHTFEDSTKKCAPVAHVVANHQVEEQLEWLSQRANALLANGMDLKDNQLVVPADGLYLVYSQVLFKGQGCPDYVLLTHTVSRFAISYQEKVNLLSAVKSPCPKDTPEGAELKPWYEPIYLGGVFQLEKGDQLSAEVNLPKYLNFRESGQVYFGVIALPVAHVVANHQVEEQLEWLSQRANALLANGMDLKDNQLVVPADGLYLVYSQVLFKGQGCPDYVLLTHTVSRFAISYQEKVNLLSAVKSPCPKDTPEGAELKPWYEPIYLGGVFQLEKGDQLSAEVNLPKYLNFRESGQVYFGVIALPVAHVVANHQVEEQLEWLSQRANALLANGMDLKDNQLVVPADGLYLVYSQVLFKGQGCPDYVLLTHTVSRFAISYQEKVNLLSAVKSPCPKDTPEGAELKPWYEPIYLGGVFQLEKGDQLSAEVNLPKYLNFRESGQVYFGVIAL | 2
3 |  | 53 | 890 | 589000 | IL2-EHD2-sc-mTNFR2 (ligand) APTSSSTSSSTAEAQQQQQQQQQQQQHLEQLLMDLQELLSRMENYRNLKLPRMLTFKFYLPKQATELKDLQCLEDELGPLRHVLDLTQSKSFQLEDAENFISNIRVTVVKLKGSDNTFECQFDDESATVVDFLRRWIAFCQSIISTSPQPTVKILQSSCDGGGHFPPTIQLLCLVSGYTPGTINITWLEDGQVMDVDLSTASTTQEGELASTQSELTLSQKHWLSDRTYTCQVTYQGHTFEDSTKKCAPVAHVVANHQVEEQLEWLSQRANALLANGMDLKDNQLVVPADGLYLVYSQVLFKGQGCPDYVLLTHTVSRFAISYQEKVNLLSAVKSPCPKDTPEGAELKPWYEPIYLGGVFQLEKGDQLSAEVNLPKYLNFRESGQVYFGVIALPVAHVVANHQVEEQLEWLSQRANALLANGMDLKDNQLVVPADGLYLVYSQVLFKGQGCPDYVLLTHTVSRFAISYQEKVNLLSAVKSPCPKDTPEGAELKPWYEPIYLGGVFQLEKGDQLSAEVNLPKYLNFRESGQVYFGVIALPVAHVVANHQVEEQLEWLSQRANALLANGMDLKDNQLVVPADGLYLVYSQVLFKGQGCPDYVLLTHTVSRFAISYQEKVNLLSAVKSPCPKDTPEGAELKPWYEPIYLGGVFQLEKGDQLSAEVNLPKYLNFRESGQVYFGVIAL | 2
